Test results: publication PMC8509808, “Characterization of the Chimeric PriB-SSBc Protein” (International Journal of Molecular Sciences, 2021)

B1: dT60 (ssDNA)
DNA: TTTTTTTTTTTTTTTTTTTTTTTTTTTTTTTTTTTTTTTTTTTTTTTTTTTTTTTTTTTT
B2: dT55 (ssDNA)
DNA: TTTTTTTTTTTTTTTTTTTTTTTTTTTTTTTTTTTTTTTTTTTTTTTTTTTTTTT
B3: Klebsiella pneumoniae SSB (natural protein, UniProt A6TGW7 1-174, looked up)
chain: MASRGVNKVILVGNLGQDPEVRYMPSGGAVANFTLATSESWRDKQTGEMKEQTEWHRVVLFGKLAEVAGEYLRKGSQVYIEGQLRTRKWTDQSGQDKYTTEVVVNVGGTMQMLGGRQGGGAPAGGGQQQGGWGQPQQPQGGNQFSGGAQSRPQQQAPAAPSNEPPMDFDDDIPF
notes: amino acids 120-174 not observed in the crystal structure; the gene spans 525 nt; also called KpSSB; source: E. coli, purified (ammonia sulfate precipitation, Q and Heparin columns)

Assays:
[1] = target: chimeric PriB-SSBc protein (KpPriB1-98 fused KpSSB112-174) (Klebsiella pneumoniae) (UniProt A6THB2); experiment: SEC; purified PriB-SSBc 4 mg/mL in 20 mM HEPES, 100 mM NaCl, pH 7.0 on a Superdex 200 prep grade column, calibrated with standard proteins
[2] = target: T1, KpSSB (Klebsiella pneumoniae, UniProt A6TGW7 1-174); experiment: EMSA; monomer conc.; 1 complex; EMSA: 20 mM Tris-HCl pH 8.0, 100 mM NaCl, 25 C, 30 min, 1.7 nM 32P-ssDNA; 8% native PAGE in TBE at 4 C; settings: protein: recombinant; tags: none (tag-free); chain copies: 4; label: 5'-32P
[3] = target: T2, KpPriB (Klebsiella pneumoniae, UniProt A6THB2 1-104); experiment: as above; settings: protein: recombinant; tags: none (tag-free); chain copies: 2; label: 5'-32P
[4] = target: T1, KpSSB; experiment: EMSA; monomer conc.; 2 complexes; EMSA: 20 mM Tris-HCl pH 8.0, 100 mM NaCl, 25 C, 30 min, 1.7 nM 32P-ssDNA; 8% native PAGE in TBE at 4 C; settings: protein: recombinant; tags: none (tag-free); chain copies: 4; label: 5'-32P
[5] = target: T1, KpSSB; experiment: EMSA; ND; no stable complex up to 5 uM protein; EMSA: 20 mM Tris-HCl pH 8.0, 100 mM NaCl, 25 C, 30 min, 1.7 nM 32P-ssDNA; 8% native PAGE in TBE at 4 C; settings: protein: recombinant; tags: none (tag-free); chain copies: 4; label: 5'-32P
[6] = target: T1, KpSSB; experiment: EMSA; ND; up to 5 uM protein; EMSA: 20 mM Tris-HCl pH 8.0, 100 mM NaCl, 25 C, 30 min, 1.7 nM 32P-ssDNA; 8% native PAGE in TBE at 4 C; settings: protein: recombinant; tags: none (tag-free); chain copies: 4; label: 5'-32P
[7] = target: T2, KpPriB; experiment: EMSA; ND; up to 50 uM protein; EMSA: 20 mM Tris-HCl pH 8.0, 100 mM NaCl, 25 C, 30 min, 1.7 nM 32P-ssDNA; 8% native PAGE in TBE at 4 C; settings: protein: recombinant; tags: none (tag-free); chain copies: 2; label: 5'-32P
[8] = target: the molecule itself; experiment: crystal structure; KpSSB without DNA, 14 mg/mL, hanging drop vapor diffusion, 20% PEG 3350, 0.2 M magnesium acetate tetrahydrate, pH 6.5; four monomers per asymmetric unit

Row | Molecule | apparent K (half saturation) [2] [nM] | apparent K (half saturation) [3] [µM] | other results
1 | chimeric PriB-SSBc protein (KpPriB1-98 fused KpSSB112-174) (from UniProt A6THB2 1-98; A6TGW7 112-174) |  |  | stoichiometry N [1]: 2
2 | TTTTTTTTTTTTTTTTTTTTTTTTT (ssDNA) [dT25] | 580 ± 50 | 14.1 ± 1 | 
3 | TTTTTTTTTTTTTTTTTTTTTTTTTTTTTT (ssDNA) [dT30] | 550 ± 40 | 9.2 ± 0.8 | 
4 | B1 |  | 4.8 ± 0.5 | apparent K (half saturation) [4]: 50 ± 10 nM
5 | B2 |  | 4.9 ± 0.5 | apparent K (half saturation) [4]: 130 ± 10 nM
6 | TTTTTTTTTTTTTTTTTTTTTTTTTTTTTTTTTTTTTTTT (ssDNA) [dT40] | 230 ± 10 | 9.1 ± 0.8 | 
7 | TTTTTTTTTTTTTTTTTTTT (ssDNA) [dT20] |  |  | binding result [5]: no binding
8 | TTTTTTTTTTTTTTT (ssDNA) [dT15] |  |  | binding result [6]: no binding; binding result [7]: no binding
9 | TTTTTTTTTTTTTTTTTTTTTTTTTTTTTTTTTTTTTTTTTTTTTTTTTT (ssDNA) [dT50] | 170 ± 20 | 5.6 ± 0.3 | 
10 | B3 |  |  | stoichiometry N [8]: 4
